# Laboratory results from paper PMC8983731, “Structural basis for the SUMO protease activity of the atypical ubiquitin-specific protease USPL1” (Nature Communications, 2022).
# B1: USPL1 catalytic domain Y451F (enzyme, human, UniProt Q5W0Q7 212-514, looked up)
# chain: MPLESKCTSFPQALCVQWKNAYALCWLDCILSALVHSEELKNTVTGLCSKEESIFWRLLTKYNQANTLLYTSQLSGVKDGDCKKLTSEIFAEIETCLNEVRDEIFISLQPQLRCTLGDMESPVFAFPLLLKLETHIEKLFLYSFSWDFECSQCGHQYQNRHMKSLVTFTNVIPEWHPLNAAHFGPCNNCNSKSQIRKMVLEKVSPIFMLHFVEGLPQNDLQHYAFHFEGCLYQITSVIQFRANNHFITWILDADGSWLECDDLKGPCSERHKKFEVPASEIHIVIWERKISQVTDKEAACLPL
# notes: USPL1, human, catalytic domain Met212-Leu514, point mutant; Made by site-directed mutagenesis of pET28a-USPL1CD; source: E. coli Rosetta (DE3), purified (Ni Sepharose, Resource Q anion exchange); not shown: His tag (from the vector pET28a)
# Columns and labels:
# [1] = biological target: T1, ∆14-SUMO2 precursor C48S/G93C with dehydroalanine at position 93 (SUMO2-DHA) (human, UniProt P61956 15-95, C48S | G93C, dehydroalanine (DHA) at position 93 (made from Cys93 of G93C with 2,5-dibromohexanediamide)); test: cell-based or functional assay
# T1 sequence (P61956 15-95 C48S/G93C): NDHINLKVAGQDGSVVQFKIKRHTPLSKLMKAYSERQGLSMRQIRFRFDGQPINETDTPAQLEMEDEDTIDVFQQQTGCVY
# [2] = biological target: T1, ∆14-SUMO2 precursor C48S/G93C with …; test: cross-linking; active site probe assay: protease at 2 μM with SUMO2-DHA at 6 μM, 30 °C, 3 h; formation of the covalent thioether adduct; USPL1 wild type and mutants for 3 h; details: both partners purified
binder,measurement,setting,value
B1,"proteolytic activity against SUMO2 substrates, fold decrease against wild type",[1],4 fold
same,fold decrease of binding against wild type,[2],4 fold
